Holding throughout (type): in vivo
One series relates to ovariectomized mice. Briefly: Pulsed versus continuous (ALZET pump) RANKL in OVX mice. Here is the method: FIGS. 10A through 10E show the effect of delivering RANKL in pulses as opposed to a continuous exposure leads to its antiresorptive effect. 12 week old mice were treated either as sham-operated or OVX using pumps or pulsed. Two weeks post-surgery ALZET® pumps were implanted in the intraperitoneal cavity that contained either PBS or RANKL as indicated in the plots above. All groups were pulsed with equivalent dose of RANKL (0.125 mg/kg, pulsed twice 24 hrs. apart) or PBS as indicated in the plots. […] In FIG. 10B, Quantification across groups (6 mice/group).

Series [1] deals with aortic plaque development and bone loss. Briefly: Ovariectomized WT or LDLR-lacking female mice on Western Diet, pulsed low dose RANKL 14 days and 6 weeks post surgery. An excerpt: With specific regards to determining an effect on atherosclerosis, ten-week old female mice that were either C57BL/6J (WT) or lacking low-density lipoprotein receptor (LDLR) were randomly assigned to chow (LabDiet 5L0B, containing 5% fat and 0.014% cholesterol, by weight) or a “Western Diet” that was high in fat and cholesterol (Teklad TD96121, containing 21% fat and 1.25% cholesterol). When the mice were 12 weeks old, all animals were surgically operated. Half the mice were ovariectomized (simulating menopause), and the other half had sham surgery. One group of ovariectomized mice on the Western Diet were treated with pulsed low dose RANKL (0.125 mg/kg) 14 days post surgery (14 weeks of age) and 6 weeks post surgery (18 weeks old). All mice were sacrificed at 20 weeks of age, and bone loss and aortic plaque development were analyzed.

The subject of series [2] is atherosclerotic lesions in the aortic root. Briefly: WD-fed ovariectomized LDLR-/- and WT mice dosed with saline or IdRANKL: weight, cholesterol, atheroma, BV/TV. The settings on record: for atheroprotection / effects of OVX on atherogenesis / bone loss (BV/TV): LDLR-/- and WT mice; for reduction of plaque size compared to non-treated animals: WD, OVX; for body weight gain: ovariectomized WD-fed LDLR-/- and WT mice. Here is the method:
Ovariectomized (OVX) mice were treated with saline control or pulsed low-dose RANKL at 3 and 7 weeks post-OVX. RANKL was administered at 0.125 mg/kg twice at 0 and 24 hours for each treatment time point.
In order to define the contributions of menopause, LDL-cholesterol, and diet to postmenopausal morbidities, 10-week-old wild-type (WT) and (LDLR−/−) mice were placed on normal (ND) or western (WD) diet and we performed sham-surgery or ovariectomy two weeks after die diet switch. This regimen is intended to mimic the conditions of patients, who presumably already have fatty streaks in their vasculature by the time menopause ensues. All animals were sacrificed at 19 weeks of age, when hearts, long bones, and blood were collected.
It has been previously shown that low-dose RANKL (IdRANKL) induces TcREG in bone marrow. We postulated that induction of TcREG might be atheroprotective as it protects against osteoporosis in ovariectomized mice. To test that proposal, we first tested the ability of IdRANKL to modulate the systemic availability of proinflammatory cytokines. Thus, a new group of WT mice were fed WD, and subjected to sham or OVX surgeries, then dosed with saline or IdRANKL (two i.p. injections 3 and 7 weeks after OVX). […] We then, measured the ability of freshly isolated T-cells from peripheral blood to produce IL-17A and TNFα. […] Zoledronate is a bisphosphonate that is used clinically to prevent bone resorption (by suppressing osteoclasts). […] Without being limited to any particular theory of operation, we hypothesize that these cells contribute to postmenopausal comorbidities such as atherosclerosis and osteoporosis, and that immunosuppressing therapies such as pulsed IdRANKL will have cardio- and osteo-protective effects.
To test this hypothesis, a new group of LDLR−/− and WT mice were fed WD and ovariectomized as discussed previously, and dosed with saline or IdRANKL as above. […] The underlying mechanism for this limiting weight-gain following induction of TcREG is not known, but warrants further study. […] This beneficial effect was more pronounced in WI mice, where plaques were reduced by 80% in size, compared to non-treated animals. In LDLR−/− mice, the reduction was more modest at 35%. […] We conclude that IdRANKL likely exerts protective effects in the aorta and the bone via TcReG-mediated suppression of TEFF proinflammatory activity (e.g. production of IL-17A and TNFα).

Entries after “also recorded” stand apart in the source; their conditions may differ.

B1: receptor activator of NF-κB ligand (protein, UniProt O35235 139-316, looked up)
Tumor necrosis factor ligand …: FSGAPAMMEGSWLDVAQRGKPEAQPFAHLTINAASIPSGSHKVTLSSWYHDRGWAKISNMTLSNGKLRVNQDGFYYLYANICFRHHETSGSVPTDYLQLMVYVVKTSIKIPSSHNLMKGGSTKNWSGNSEFHFYSINVGGFFKLRAGEEISIQVSNPSLLDPDQDATYFGAFKVQDID
modifications: GST tag
As for B1, the bone resorption result in the series on ovariectomized mice (continuous delivery via osmotic pumps) is reported as “led to increased bone resorption”. Besides, in the series with ovariectomized mice (continuous exposure by pump, identical dose), the TcREG induction entry is reported as “did not induce TcREG; also recorded: No TcREG induction is observed”. Moreover, the “Bone volume (BV/TV)” value in the series on ovariectomized mice (delivered by pump) is on record as “decreased”. For the same molecule, in the series on ovariectomized mice (pulsed), the “Bone volume (BV/TV)” value is given as “restored to levels observed in sham-operated mice”, the TEFF cells result is “decrease in TEFF cells was only observed in mice pulsed with RANKL” and the bone resorption result is on record as “decreased levels of bone resorption were observed”. The TcREG induction entry with ovariectomized mice (pulsed, 0.125 mg/kg twice 24 hrs apart) was “induced TcREG”. For the same molecule, in series [1] (low dose RANKL treated mice), the plaque volume entry is recorded as “plaque volume in low dose treated mice was also reduced”. Further, the weight gain entry in series [1] (low dose RANKL vs without treatment) is recorded as “less weight gain”. The inflammation result in series [1] (ovariectomized mice, compared to Zolendronate) was “reduced”. For the same molecule, in series [1] (ovariectomized, western diet), the “number of atherosclerotic lesions in the aortic root” value was “the number of atherosclerotic lesions in the aortic root was reduced” and the osteoporosis result is “ameliorate osteoporosis”. Besides, in series [2], the “atheroprotection / effects of OVX on atherogenesis” value was “eliminated the effects of OVX on both osteoporosis and atherogenesis”. The “total cholesterol in serum” value in series [2] (LDLR-/- and WT mice (FIG. 20G)) is on record as “does not significantly alter total cholesterol in serum”. In addition, in series [2] (listed as IdRANKL), the “atheroprotection / effects of OVX on atherogenesis” value was “atheroprotective”, the “bone loss (BV/TV)” value is on record as “pronounced effect on preventing osteoporosis” and the body weight gain entry was “ameliorated body weight gain”. In series [2] (listed as low-dose RANKL), the “bone loss (BV/TV)” value is reported as “prevents bone loss” and the body weight gain entry is “reduces body gain weight”. In series [2] (LDLR-/- mice), the serum cholesterol entry is “slightly decreased” and the “reduction of plaque size compared to non-treated animals” value is 35%. Moreover, the “reduction of plaque size compared to non-treated animals” value in series [2] (WT mice) is 80%.

The values above are taken from US10745461B2, “Pulsed introduction of low-dose RANKL as a therapy for diet-induced atherosclerosis” (Saint Louis University, priority 2015, dated 2020).
